Reference: the supplement of paper PMC9112550, “Optimization of the antimicrobial peptide Bac7 by deep mutational scanning” (BMC Biology, 2022)

Test system: Escherichia coli TOP10
Assay: shrunken log2 fold change of peptide-encoding DNA abundance (4.5 h post-induction vs induction); higher = less antimicrobial activity (less host growth inhibition)
Details: time post-induction: 4.5 h; library: site-saturation at positions 5, 18, 19, 20
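Further: peptides expressed intracellularly from a pBAD plasmid library in pooled LB shake-flask culture, induced with 0.3% L-arabinose, DNA abundance read by NGS, three biological replicates, DESeq2 with apeglm shrinkage.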

RRIRGRPPRLPRPRPRPYRKPRP and RRIRNRPPRLPRPRPRPEWGPRP are within 0.2 log units of each other in “shrunken log2 fold change” value: 0.176 for the first, 0.114 for the second.

First: RRIRSRPPRLPRPRPRPLCLPRP
Second: RRIRERPPRLPRPRPRPVIDPRP
The “shrunken log2 fold change” value of the first is higher: 0.259 for the first, -0.0264 for the second.

Compared with RRIRIRPPRLPRPRPRPHHVPRP, RRIRVRPPRLPRPRPRPEHFPRP is higher in “shrunken log2 fold change” value: -0.091 for the first, 0.131 for the second.

Going from RRIRCRPPRLPRPRPRPIWCPRP to RRIRPRPPRLPRPRPRPANWPRP, the “shrunken log2 fold change” value rises from 2.08e-06 to 0.22.

RRIRYRPPRLPRPRPRPFCRPRP and RRIRHRPPRLPRPRPRPNHCPRP are within 0.2 log units of each other in “shrunken log2 fold change” value: -0.228 for the first, -0.0509 for the second.

RRIRERPPRLPRPRPRPQSAPRP and RRIRCRPPRLPRPRPRPEFFPRP are within 0.2 log units of each other in “shrunken log2 fold change” value: -0.227 for the first, -0.127 for the second.

First: RRIRVRPPRLPRPRPRPGDVPRP
Second: RRIRCRPPRLPRPRPRPYMFPRP
The “shrunken log2 fold change” value of the first is higher: -0.262 for the first, -1.01 for the second.

Compared with RRIRTRPPRLPRPRPRPQHHPRP, RRIRFRPPRLPRPRPRPISGPRP is higher in “shrunken log2 fold change” value: -0.453 for the first, 0.00212 for the second.

First: RRIRVRPPRLPRPRPRPEKEPRP
Second: RRIRQRPPRLPRPRPRPLECPRP
The “shrunken log2 fold change” value of the first is higher: 0.0209 for the first, -0.184 for the second.

Going from RRIRARPPRLPRPRPRPWTAPRP to RRIRDRPPRLPRPRPRPDYHPRP, the “shrunken log2 fold change” value falls from 0.871 to -0.0139.

Compared with RRIRYRPPRLPRPRPRPLFSPRP, RRIRCRPPRLPRPRPRPKPPPRP is higher in “shrunken log2 fold change” value: -0.673 for the first, 0.931 for the second.

Going from RRIRTRPPRLPRPRPRPFCIPRP to RRIRCRPPRLPRPRPRPCSKPRP, the “shrunken log2 fold change” value rises from -0.361 to -0.0735.

Compared with RRIRFRPPRLPRPRPRPPWLPRP, RRIRNRPPRLPRPRPRPAEVPRP is lower in “shrunken log2 fold change” value: 0.509 for the first, -0.144 for the second.

First: RRIRSRPPRLPRPRPRPDQYPRP
Second: RRIRRRPPRLPRPRPRPSHYPRP
The “shrunken log2 fold change” value of the first is lower: -2.18 for the first, -0.131 for the second.

Compared with RRIRARPPRLPRPRPRPEGKPRP, RRIRVRPPRLPRPRPRPDMNPRP is lower in “shrunken log2 fold change” value: 0.702 for the first, -0.548 for the second.

Going from RRIRTRPPRLPRPRPRPLSSPRP to RRIRGRPPRLPRPRPRPDNWPRP, the “shrunken log2 fold change” value rises from -0.0339 to 0.347.

First: RRIRERPPRLPRPRPRPGVMPRP
Second: RRIRPRPPRLPRPRPRPGCCPRP
The “shrunken log2 fold change” value of the first is lower: 0.0523 for the first, 0.343 for the second.

Going from RRIRSRPPRLPRPRPRPNSVPRP to RRIRFRPPRLPRPRPRPAPGPRP, the “shrunken log2 fold change” value rises from -0.509 to 0.668.

Going from RRIRQRPPRLPRPRPRPEDSPRP to RRIRMRPPRLPRPRPRPRAKPRP, the “shrunken log2 fold change” value rises from -0.0908 to 1.25.

RRIRIRPPRLPRPRPRPHESPRP and RRIRKRPPRLPRPRPRPMSPPRP are within 0.2 log units of each other in “shrunken log2 fold change” value: 0.0539 for the first, -0.0332 for the second.

RRIRLRPPRLPRPRPRPVPLPRP and RRIRYRPPRLPRPRPRPPRVPRP are within 0.2 log units of each other in “shrunken log2 fold change” value: -0.174 for the first, -0.0115 for the second.

Compared with RRIRIRPPRLPRPRPRPFMGPRP, RRIRCRPPRLPRPRPRPAAKPRP is higher in “shrunken log2 fold change” value: -0.438 for the first, 0.164 for the second.

RRIRMRPPRLPRPRPRPLFPPRP and RRIRQRPPRLPRPRPRPMAVPRP are within 0.2 log units of each other in “shrunken log2 fold change” value: 0.152 for the first, 0.00724 for the second.

RRIRFRPPRLPRPRPRPLRYPRP and RRIRERPPRLPRPRPRPKQDPRP are within 0.2 log units of each other in “shrunken log2 fold change” value: -0.192 for the first, -0.252 for the second.

RRIRDRPPRLPRPRPRPDKGPRP and RRIRFRPPRLPRPRPRPNWDPRP are within 0.2 log units of each other in “shrunken log2 fold change” value: -0.0944 for the first, -0.269 for the second.

Going from RRIRNRPPRLPRPRPRPAAQPRP to RRIRTRPPRLPRPRPRPFYYPRP, the “shrunken log2 fold change” value falls from 0.401 to -0.55.

Compared with RRIRNRPPRLPRPRPRPHKIPRP, RRIRMRPPRLPRPRPRPADRPRP is higher in “shrunken log2 fold change” value: -0.657 for the first, 0.707 for the second.

Compared with RRIRFRPPRLPRPRPRPDIRPRP, RRIRLRPPRLPRPRPRPMHMPRP is lower in “shrunken log2 fold change” value: 0.0306 for the first, -0.226 for the second.

RRIRHRPPRLPRPRPRPPDWPRP and RRIRDRPPRLPRPRPRPTPGPRP are within 0.2 log units of each other in “shrunken log2 fold change” value: 0.536 for the first, 0.468 for the second.

RRIRKRPPRLPRPRPRPGQWPRP and RRIRRRPPRLPRPRPRPKNRPRP are within 0.2 log units of each other in “shrunken log2 fold change” value: 0.181 for the first, -0.0177 for the second.

RRIRSRPPRLPRPRPRPSCYPRP and RRIRERPPRLPRPRPRPMFMPRP are within 0.2 log units of each other in “shrunken log2 fold change” value: -0.511 for the first, -0.468 for the second.

Going from RRIRNRPPRLPRPRPRPIVCPRP to RRIRDRPPRLPRPRPRPQRTPRP, the “shrunken log2 fold change” value rises from -0.301 to 0.0905.

First: RRIRARPPRLPRPRPRPGCCPRP
Second: RRIRDRPPRLPRPRPRPEVCPRP
The “shrunken log2 fold change” value of the first is higher: 0.841 for the first, 0.0705 for the second.

First: RRIRHRPPRLPRPRPRPYYQPRP
Second: RRIRHRPPRLPRPRPRPLWHPRP
The “shrunken log2 fold change” value of the first is lower: -0.416 for the first, -0.138 for the second.

Going from RRIRHRPPRLPRPRPRPPCFPRP to RRIRRRPPRLPRPRPRPMGPPRP, the “shrunken log2 fold change” value rises from -0.0882 to 0.135.

RRIRARPPRLPRPRPRPYREPRP and RRIRIRPPRLPRPRPRPVIIPRP are within 0.2 log units of each other in “shrunken log2 fold change” value: -0.0268 for the first, -0.146 for the second.

RRIRLRPPRLPRPRPRPVNYPRP and RRIRCRPPRLPRPRPRPQPIPRP are within 0.2 log units of each other in “shrunken log2 fold change” value: -0.231 for the first, -0.335 for the second.

Compared with RRIRPRPPRLPRPRPRPDWFPRP, RRIRPRPPRLPRPRPRPLRCPRP is higher in “shrunken log2 fold change” value: 0.0805 for the first, 0.394 for the second.

Going from RRIRQRPPRLPRPRPRPQIFPRP to RRIRWRPPRLPRPRPRPNQCPRP, the “shrunken log2 fold change” value falls from -0.0511 to -0.384.

Compared with RRIRIRPPRLPRPRPRPTDMPRP, RRIRIRPPRLPRPRPRPEWKPRP is higher in “shrunken log2 fold change” value: -0.385 for the first, 0.0442 for the second.

First: RRIRRRPPRLPRPRPRPQMHPRP
Second: RRIRNRPPRLPRPRPRPCNDPRP
The “shrunken log2 fold change” value of the first is higher: 0.354 for the first, -0.274 for the second.

Going from RRIRYRPPRLPRPRPRPNWKPRP to RRIRLRPPRLPRPRPRPTDSPRP, the “shrunken log2 fold change” value rises from 0.138 to 2.57.

First: RRIRGRPPRLPRPRPRPSLDPRP
Second: RRIRWRPPRLPRPRPRPRGPPRP
The “shrunken log2 fold change” value of the first is lower: 0.607 for the first, 0.931 for the second.

RRIRVRPPRLPRPRPRPTIGPRP and RRIRPRPPRLPRPRPRPTACPRP are within 0.2 log units of each other in “shrunken log2 fold change” value: 0.178 for the first, 0.338 for the second.

RRIRRRPPRLPRPRPRPYYLPRP and RRIRTRPPRLPRPRPRPYTAPRP are within 0.2 log units of each other in “shrunken log2 fold change” value: -0.308 for the first, -0.389 for the second.

Going from RRIRWRPPRLPRPRPRPWFAPRP to RRIRARPPRLPRPRPRPEVFPRP, the “shrunken log2 fold change” value rises from 0.135 to 0.401.

First: RRIRQRPPRLPRPRPRPVHPPRP
Second: RRIRKRPPRLPRPRPRPAGRPRP
The “shrunken log2 fold change” value of the first is lower: 0.211 for the first, 0.432 for the second.

RRIRNRPPRLPRPRPRPPCKPRP and RRIRRRPPRLPRPRPRPVYAPRP are within 0.2 log units of each other in “shrunken log2 fold change” value: 0.0896 for the first, 0.21 for the second.

Going from RRIRVRPPRLPRPRPRPNVHPRP to RRIRNRPPRLPRPRPRPYIGPRP, the “shrunken log2 fold change” value rises from -0.546 to 0.0261.

RRIRSRPPRLPRPRPRPLFTPRP and RRIRQRPPRLPRPRPRPFKKPRP are within 0.2 log units of each other in “shrunken log2 fold change” value: -0.0175 for the first, 0.0942 for the second.

Compared with RRIRYRPPRLPRPRPRPMLPPRP, RRIRPRPPRLPRPRPRPAVKPRP is higher in “shrunken log2 fold change” value: -0.0473 for the first, 0.171 for the second.

Compared with RRIRPRPPRLPRPRPRPFYVPRP, RRIRGRPPRLPRPRPRPAPCPRP is higher in “shrunken log2 fold change” value: -0.459 for the first, 0.426 for the second.

RRIRTRPPRLPRPRPRPMSIPRP and RRIRPRPPRLPRPRPRPMCIPRP are within 0.2 log units of each other in “shrunken log2 fold change” value: -0.143 for the first, -0.0687 for the second.

Compared with RRIRCRPPRLPRPRPRPVARPRP, RRIRDRPPRLPRPRPRPNYMPRP is lower in “shrunken log2 fold change” value: 0.255 for the first, -0.216 for the second.

First: RRIRQRPPRLPRPRPRPRWSPRP
Second: RRIRRRPPRLPRPRPRPSERPRP
The “shrunken log2 fold change” value of the first is higher: 0.231 for the first, -0.0993 for the second.

Compared with RRIRARPPRLPRPRPRPTDKPRP, RRIRARPPRLPRPRPRPMESPRP is lower in “shrunken log2 fold change” value: 0.391 for the first, 0.0501 for the second.

Going from RRIRSRPPRLPRPRPRPKDEPRP to RRIRHRPPRLPRPRPRPLSYPRP, the “shrunken log2 fold change” value falls from 0.382 to -0.895.

RRIRERPPRLPRPRPRPRYTPRP and RRIRPRPPRLPRPRPRPVVHPRP are within 0.2 log units of each other in “shrunken log2 fold change” value: -0.244 for the first, -0.205 for the second.

Going from RRIRTRPPRLPRPRPRPFLTPRP to RRIRWRPPRLPRPRPRPWNPPRP, the “shrunken log2 fold change” value falls from 0.153 to -0.219.

Compared with RRIRRRPPRLPRPRPRPQHIPRP, RRIRDRPPRLPRPRPRPHYCPRP is higher in “shrunken log2 fold change” value: -0.338 for the first, -0.0438 for the second.

Compared with RRIRWRPPRLPRPRPRPHVHPRP, RRIRGRPPRLPRPRPRPTGRPRP is higher in “shrunken log2 fold change” value: -0.126 for the first, 0.907 for the second.

Compared with RRIRWRPPRLPRPRPRPSEAPRP, RRIRPRPPRLPRPRPRPMRVPRP is higher in “shrunken log2 fold change” value: 0.0701 for the first, 0.998 for the second.

With RRIRTRPPRLPRPRPRPPTTPRP the “shrunken log2 fold change” value was 0.302.
